# Measured values published in PMC2895659.
# Experiments:
# [1] = target: E1/E2 glycoprotein complex of Jc1/G451R (Jc1 with a single G451R mutation within E2) on HCV particles (hepatitis C virus genotype 2a (J6CF)) (UniProt P26660)
# [2] = target: E1/E2 glycoprotein complex of Jc1/mCD81 (Jc1 carrying L216F, V388G and M405T) on HCV particles (hepatitis C virus genotype 2a (J6CF)) (UniProt P26660)
substance,measurement,setting,value
recombinant fusion protein between GST and the human CD81 large extracellular loop (LEL) (domain or fragment),reduction of luciferase reporter virus infection of Lunet N hCD81 cells after preincubation with 10 µg/ml hCD81 LEL,[1],> 10 fold
same,reduction of luciferase reporter virus infection of Lunet N hCD81 cells after preincubation with 10 µg/ml hCD81 LEL,[2],> 10 fold
